Three molecules from patent publication US8450464 (Bristol-Myers Squibb, dated 2013) can be followed below.

Usually EC50 stands for the concentration needed to bring the measured effect to its halfway point.

Assay [1] addresses T1, human CXCR4 (human, UniProt P61073 1-352). In words: competition flow cytometry on CEM cells: unlabeled antibody titrated against a constant concentration of FITC-labeled F9, fluorescent geometric mean; unit from the axis 'Ab Concentration in nM'.
Assay [2] deals with T1, human CXCR4. In words: flow cytometry titration on CEM cells (native human CXCR4), FITC anti-human IgG secondary, MFI; unit from the axis 'Conc in nM'. The method, then:
(§1) The antibodies were then mixed with CEM cells and allowed to bind before being detected with a FITC-conjugated anti-human IgG secondary antibody. The cells were then analyzed by fluorescent cytometry.

For assay [3], the target named is T1, human CXCR4. In words: radioligand competition on CEM cells; competitor 100 pM 125I-SDF-1. As to the method: The anti-CXCR4 antibodies were serially diluted 1:3 to yield a range of concentrations from 300 nM to 137 pM. […] An irrelevant antibody of the same isotype was used as a negative control.
For orientation: Displacement assays read how much labelled ligand stays bound in the presence of the test substance.

In assay [4] the target is T1, human CXCR4. In words: flow cytometry on CEM cells, FITC anti-human IgG detection. The method, then: as §1
Assay [5] concerns the target T1, human CXCR4. In words: cell-based or functional assay.
In assay [6] the target is T1, human CXCR4. In words: competition flow cytometry on CEM cells: unlabeled antibody titrated against a constant concentration of FITC-labeled F9, fluorescent geometric mean; unit from the axis 'Ab Concentration in nM'; the fitted value lies above the highest concentration shown (about 300 nM), inhibition is only partial. As to the method:
To determine the ability of a panel of anti-CXCR4 antibodies to compete for binding to CXCR4, competition studies were performed. […] The mixture of antibodies was then added to CEM cells and allowed to bind.

Assay [7] concerns the target T1, human CXCR4. In words: flow cytometry titration on CEM cells (native human CXCR4), FITC anti-human IgG secondary, MFI; unit from the axis 'Conc in nM'; the curve is still rising at the highest concentration, no upper plateau. The method, then: as §1

T1 sequence (P61073 whole entry): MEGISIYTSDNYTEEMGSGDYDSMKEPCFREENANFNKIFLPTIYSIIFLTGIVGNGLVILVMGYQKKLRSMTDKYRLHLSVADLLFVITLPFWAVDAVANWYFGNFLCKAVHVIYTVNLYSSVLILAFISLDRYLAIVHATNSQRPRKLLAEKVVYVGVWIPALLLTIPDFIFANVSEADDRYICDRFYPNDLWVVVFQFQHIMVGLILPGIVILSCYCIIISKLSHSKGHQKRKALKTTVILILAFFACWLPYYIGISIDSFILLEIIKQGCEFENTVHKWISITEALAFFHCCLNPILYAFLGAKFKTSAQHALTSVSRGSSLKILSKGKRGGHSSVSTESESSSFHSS

On to “murine monoclonal anti-CXCR4 antibody 12G5”, for which the EC50 in the assay with human CXCR4 [1] came to 102 nM. That is a sub-micromolar value.

B1: anti-CXCR4 human monoclonal antibody D1 (antibody, V domains shown)
VH: EVQLVQSGGGLVQPGGSLRLSCAAAGFTFSSYSMNWVRQAPGKGLEWVSYISSRSKTIYYADSVKGRFTISRDNARNSLYLQMNSLRDEDTAVYYCARDYGGQPPYYYYYGMDVWGQGTTVTVSS
VL: VIWVTQSPSSLSASVGDRVTITCRTSQGISSWLAWYQQKPEKAPELLIYAASSLQSGVPSRFSGSGSGTDFTLTISSLQPEDFATYYCQQYNSYPRTFGQGTKVEIK
notes: Tested as full-length antibody
Turning to B1, the EC50 is 79.9 nM in the assay with human CXCR4 [2], 28.6 nM with human CXCR4 [3], 80 nM with human CXCR4 [4] and 59.2 nM in the assay with human CXCR4 [1]. Further, in the assay with human CXCR4 [5], the “EC50 for inhibition of SDF-1-induced calcium flux in CEM cells” value came out at 0.57 nM.

B2: anti-CXCR4 human monoclonal antibody E2 (antibody, V domains shown)
VH: EVQLVQSGGGLVQPGGSLRLSCAAAGFTFSSYSMNWVRQAPGKGLEWVSYISSRSRTIYYADSVKGRFTISRDNAKNSLYLQMNSLRDEDTAVYYCARDYGGQPPYHYYYGMDVWGQGTTVTVSS
VL: EIVLTQSPSSLSASVGDRVTITCRASQGISNWLAWYQQKPEKAPKSLIYAASSLQSGVPSRFSGSGSGTDFTLTISSLQPEDFATYYCQQYNSYPRTFGQGTKVEIK
notes: as for B1
Consider B2, for which the concentration for a half-maximal effect (EC50) in the assay with human CXCR4 [6] worked out at 469 nM; with human CXCR4 [4] it was 290 nM; in the assay with human CXCR4 [7] it was 290 nM.
